Results as given in US20120107932A1 (published 2012).

Target: PRRS virus (PRRSV)
Test: cell-based or functional assay

B1: NMHC II-A artificial polypeptide (Seq ID No: 2) (peptide)
peptide: GAGDGSDEE
- CPE caused by PRRSV on Marc-145 and PAM cells, blocker at 1 µg/well ('++' means CPE in 50% cells): 50 % cells with CPE

B2: NMHC II-A artificial polypeptide (Seq ID No: 4) (peptide)
peptide: KADGAEAKPAE
- CPE caused by PRRSV on Marc-145 and PAM cells, blocker at 1 µg/well ('++' means CPE in 50% cells): 50 % cells with CPE

B3: NMHC II-A artificial polypeptide (Seq ID No: 3) (peptide)
peptide: GAGDGSDEEVDGKA
- CPE caused by PRRSV on Marc-145 and PAM cells, blocker at 1 µg/well ('++' means CPE in 50% cells): 50 % cells with CPE
